Positions count from the first letter of the chain named.
Assays:
KLTCLASYCALF = test system: T1, KLTCLASYCALF
T1 sequence: KLTCLASYCALF

KLTALASYAWLF = test system: T2, KLTALASYAWLF
T2 sequence: KLTALASYAWLF

KLTCLAsYCWLF = test system: T3, KLTCLAsYCWLF
T3 sequence: KLTCLASYCWLF

[1] = test system: T4, RRAPGKLTCLASYCWLF WTGYA SGKPSRVYVI
T4 sequence: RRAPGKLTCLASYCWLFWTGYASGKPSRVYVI

[2] = test system: T5, SKQGRPIAPDrRAAGKLTCLASYCWLFWTGIA
T5 sequence: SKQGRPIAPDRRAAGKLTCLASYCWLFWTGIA

[3] = test system: T6, RRAPGKLT-Asp-LASY-Lys-WLFWTGIA-CONH2
T6 sequence: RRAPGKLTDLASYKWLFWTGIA

LTCLASYCWLF = test system: T7, LTCLASYCWLF
T7 sequence: LTCLASYCWLF

KLTCLASYC = test system: T8, KLTCLASYC
T8 sequence: KLTCLASYC

[4] = test system: T9, RRAK(PEG2-Biotin)GKLTCLASYCWLFWTGIA
T9 sequence: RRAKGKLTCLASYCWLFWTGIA

[5] = test system: T10, RRAPGKLTCLASYCWLF WRGFA ERASEDTNQG
T10 sequence: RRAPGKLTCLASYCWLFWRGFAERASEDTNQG

RRAPGKLQCLASYCWLFWTAIA = test system: T11, RRAPGKLQCLASYCWLFWTAIA
T11 sequence: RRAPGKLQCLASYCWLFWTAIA

[6] = test system: T12, CRRAPGKLQCLASYCWLFWTGIAGGSGGC
T12 sequence: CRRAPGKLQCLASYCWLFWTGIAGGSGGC

QQRQIKMSCLASYCWLFGSIPW = test system: T13, QQRQIKMSCLASYCWLFGSIPW
T13 sequence: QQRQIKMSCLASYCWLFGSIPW

[7] = test system: T14, RRAPGKLTCLASYCWLFWTK(PEG2-Biotin)IA
T14 sequence: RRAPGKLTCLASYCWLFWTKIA

[8] = test system: T15, RRAPGKLTCLASYCWLF WTGWC RDTASHACDS
T15 sequence: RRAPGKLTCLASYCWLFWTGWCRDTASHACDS

KLTCLASYCWL = test system: T16, KLTCLASYCWL
T16 sequence: KLTCLASYCWL

FGQPSRLTCLASYCWLFGNLVT = test system: T17, FGQPSRLTCLASYCWLFGNLVT
T17 sequence: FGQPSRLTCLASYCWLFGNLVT

[9] = test system: T18, RRAPG-k-NMeLeu-TCLASYCWLFWTGIA
T18 sequence: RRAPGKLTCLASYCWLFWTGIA

[10] = test system: T19, RRAPGKLTCLASYCWLF FTGVA RSTTATTNTQ
T19 sequence: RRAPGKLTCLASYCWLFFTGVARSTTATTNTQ

KLTALASYCWLF = test system: T20, KLTALASYCWLF
T20 sequence: KLTALASYCWLF

[11] = test system: T21, SKQGRPISPDrRAAGKLTCLASYCW-NMeLeu-FWTGIA
T21 sequence: T5 sequence with A8S

RRCPGKLQALASYCWLFWTGIA = test system: T22, RRCPGKLQALASYCWLFWTGIA
T22 sequence: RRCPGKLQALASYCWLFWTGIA

compound 5 = test system: T23, compound 5
T23 sequence: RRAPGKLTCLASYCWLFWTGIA

[12] = test system: T24, PRISTVGPGSRSASGKLTCLASYCWLFWTGIA
T24 sequence: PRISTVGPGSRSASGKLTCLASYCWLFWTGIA

[13] = test system: T25, RRAPGKLT-Lys-LASY-Glu-WLFWTGIA-CONH2
T25 sequence: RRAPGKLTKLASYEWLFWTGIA

[14] = test system: T26, RRAPGKLTCLASYCWLK(PEG2-Biotin)WTGIA
T26 sequence: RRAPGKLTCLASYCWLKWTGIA

[15] = test system: T27, PRIRTVGPGSRSASGKLTCLASYCWLAWTGIA
T27 sequence: T24 sequence with S4R, F27A

KLTCLAAYCWLF = test system: T28, KLTCLAAYCWLF
T28 sequence: KLTCLAAYCWLF

RRRRRKLTCLASYCWLFRRRRR = test system: T29, RRRRRKLTCLASYCWLFRRRRR
T29 sequence: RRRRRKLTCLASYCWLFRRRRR

[16] = test system: T30, RRAPGKLTCLASYCWLF RTQIA TPESEYRQQA
T30 sequence: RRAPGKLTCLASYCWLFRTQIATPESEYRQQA

[17] = test system: T31, PRIRTVGPGSRSASGKLTCLASYCWLFWTLIA
T31 sequence: T24 sequence with S4R, G30L

[18] = test system: T32, (KLTCLASYCWLF)2═N-O-(CH2)3-O-N═
T32 sequence: KLTCLASYCWLF

[19] = test system: T33, PRIRTVGPGSRSASGKLTCVASYCWLFWTGIA
T33 sequence: T24 sequence with S4R, L20V

KKLTCLASYCWLF = test system: T34, KKLTCLASYCWLF
T34 sequence: KKLTCLASYCWLF

Dab-LTCLASYCWLF = test system: T35, Dab-LTCLASYCWLF
T35 sequence: XLTCLASYCWLF

RRAPGKLTCLASYCWLFWTGIa = test system: T36, RRAPGKLTCLASYCWLFWTGIa
T36 sequence: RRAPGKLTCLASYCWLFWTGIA

[20] = test system: T37, AQWVGRGQWA IRAPG KLTCLASYCWLFWTGIA
T37 sequence: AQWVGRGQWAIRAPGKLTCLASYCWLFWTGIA

[21] = test system: T38, RK(PEG2-Biotin)APGKLTCLASYCWLFWTGIA
T38 sequence: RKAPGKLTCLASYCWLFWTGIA

RCAQSRLPWLVSYCWLFSPYGM = test system: T39, RCAQSRLPWLVSYCWLFSPYGM
T39 sequence: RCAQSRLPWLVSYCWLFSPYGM

Lys(Me)-LTCLASYCWLF = test system: T40, Lys(Me)-LTCLASYCWLF
T40 sequence: KLTCLASYCWLF

[22] = test system: T41, PRIRTVSPGSRSASGKSTCLASYCWLFWTGIA
T41 sequence: T24 sequence with S4R, G7S, L17S

compound 3 = test system: T42, compound 3
T42 sequence: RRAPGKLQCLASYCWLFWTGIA

[23] = test system: T43, PRIRTVGPGSRSASGKLTCSASYCWLFWTGIA
T43 sequence: T24 sequence with S4R, L20S

RRAPAKLQCLASYCWLFWTGIA = test system: T44, RRAPAKLQCLASYCWLFWTGIA
T44 sequence: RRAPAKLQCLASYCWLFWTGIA

rRAAGKLTCLASYCWLAATGIA = test system: T45, rRAAGKLTCLASYCWLAATGIA
T45 sequence: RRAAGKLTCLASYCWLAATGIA

KLT-HCy-LASYCWLF = test system: T46, KLT-HCy-LASYCWLF
T46 sequence: KLTXLASYCWLF

[24] = test system: T47, RRAPGKLTCLASYCWL-MePhe-WTGIA
T47 sequence: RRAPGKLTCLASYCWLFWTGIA

[25] = test system: T48, AIGTWFLWCYSALCTLKGPARR (retro)
T48 sequence: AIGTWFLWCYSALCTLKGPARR

Substance: human Factor IXa
- Vmax, FXa generation assay (KLTCLASYCALF): > 3
- Vmax, FXa generation assay (KLTALASYAWLF): > 2
- Vmax, FXa generation assay (KLTCLAsYCWLF): > 2
- Vmax, FXa generation assay [1]: > 3
- Vmax, FXa generation assay [2]: > 3
- Vmax, FXa generation assay [3]: > 2
- Vmax, FXa generation assay; (++) means 1-2 (LTCLASYCWLF): (++)
- Vmax, FXa generation assay (KLTCLASYC): > 3
- Vmax, FXa generation assay; (++) means 1-2 [4]: (++)
- Vmax, FXa generation assay [5]: > 2
- Vmax, FXa generation assay (RRAPGKLQCLASYCWLFWTAIA): > 2
- Vmax, FXa generation assay [6]: > 2
- Vmax, FXa generation assay; (++) means 1-2 (QQRQIKMSCLASYCWLFGSIPW): (++)
- Vmax, FXa generation assay [7]: > 2
- Vmax, FXa generation assay; (++) means 1-2 [8]: (++)
- Vmax, FXa generation assay (KLTCLASYCWL): > 3
- Vmax, FXa generation assay; (++) means 1-2 (FGQPSRLTCLASYCWLFGNLVT): (++)
- Vmax, FXa generation assay [9]: > 3
- Vmax, FXa generation assay [10]: > 2
- Vmax, FXa generation assay; (++) means 1-2 (KLTALASYCWLF): (++)
- Vmax, FXa generation assay [11]: > 1.9
- Vmax, FXa generation assay (RRCPGKLQALASYCWLFWTGIA): > 2
- KM (nM) of hFIXa for FX (compound 5): 11 nM
- Vmax, FXa generation assay with hFIXa (compound 5): > 2
- kcat (min^-1) of hFIXa for FX, compound at 1 µM (compound 5): 0.0179 min⁻¹
- Δ KM (Km compound/Km buffer) (compound 5): 0.14
- Δ kM of FIXa, FXa generation assay (compound 5): 0.14
- Δ kcat of FIXa, FXa generation assay (compound 5): 199 fold
- Vmax, FXa generation assay [12]: > 3
- Vmax, FXa generation assay; (++) means 1-2 [13]: (++)
- Vmax, FXa generation assay [14]: > 2
- Vmax, FXa generation assay [15]: > 3
- Vmax, FXa generation assay; (++) means 1-2 (KLTCLAAYCWLF): (++)
- Vmax, FXa generation assay (RRRRRKLTCLASYCWLFRRRRR): > 2
- Vmax, FXa generation assay [16]: > 3
- Vmax, FXa generation assay [17]: > 3
- Vmax, FXa generation assay [18]: > 3
- Vmax, FXa generation assay [19]: > 2
- Vmax, FXa generation assay (KKLTCLASYCWLF): > 3
- Vmax, FXa generation assay; (++) means 1-2 (Dab-LTCLASYCWLF): (++)
- Vmax, FXa generation assay; (++) means 1-2 (RRAPGKLTCLASYCWLFWTGIa): (++)
- Vmax, FXa generation assay [20]: > 2
- Vmax, FXa generation assay; (++) means 1-2 [21]: (++)
- Vmax, FXa generation assay (RCAQSRLPWLVSYCWLFSPYGM): > 1.5
- Vmax, FXa generation assay; (++) means 1-2 (Lys(Me)-LTCLASYCWLF): (++)
- Vmax, FXa generation assay [22]: > 3
- KM (nM) of hFIXa for FX (compound 3): 16 nM
- Vmax (mOD/min min), with phospholipids (compound 3): 3.9 mOD/min min
- Vmax (mOD/min min), without phospholipids (compound 3): 2.77 mOD/min min
- Vmax, FXa generation assay with hFIXa (compound 3): > 3
- kcat (min^-1) of hFIXa for FX, compound at 1 µM (compound 3): 0.0177 min⁻¹
- Δ KM (Km compound/Km buffer) (compound 3): 0.21
- Vmax, FXa generation assay; (++) means 1-2 [23]: (++)
- Vmax, FXa generation assay (RRAPAKLQCLASYCWLFWTGIA): > 2
- Vmax, FXa generation assay (rRAAGKLTCLASYCWLAATGIA): > 0.8
- Vmax, FXa generation assay (KLT-HCy-LASYCWLF): > 2
- Vmax, FXa generation assay [24]: > 2
- Vmax, FXa generation assay; (++) means 1-2 [25]: (++)
